Assay results as given in patent publication US9169496B2, “Method for the enzymatic production of butadiene” (Scientist of Fortune, S.A., priority 2011, dated 2015).

Key:
[1] = substrate: C/C=C/COP(=O)(O)OP(=O)(O)O; experiment: Kinetic parameters of enzyme catalyzed production of 1,3-butadiene from trans crotyl diphosphate (GC/FID); format: biochemical, Eucalyptus globulus; settings: other: 0-25 mM trans crotyl diphosphate, pH 7.5, 37° C., 20 mM MgCl2, 20 mM KCl, 0.5-4 h
Experimental: (§1) One ml of the gaseous phase was then collected and directly injected into a Varian GC-430 gas chromatograph equipped with a flame ionization detector (FID). Nitrogen was used as carrier gas with a flow rate of 1.5 ml/min. Volatile compounds were chromatographically separated on RT-Alumina Bond/Na2SO4 column (Restek) using an isothermal mode at 130° C. The enzymatic reaction product was identified by direct comparison with 1,3-butadiene standard (Sigma).
The kinetic parameters of enzyme catalyzed production of 1,3-butadiene from trans crotyl […] were measured under the following conditions: • 50 mM Tris-HCl pH 7.5 • 20 mM MgCl2 • 20 mM KCl • 2 mM DTT • 0-25 mM trans crotyl diphosphate
(§2) The reaction was initiated by addition of 0.25 mg of purified monoterpene synthase from Eucalyptus globulus to 0.5 ml of reaction mixture. An enzyme-free control reaction was carried out in parallel. Assays were incubated at 37° C. for 0.5-4 h in a sealed vial of 1.5 ml (Interchim) with shaking.
(§3) 1,3-butadiene production was analyzed using the GC/FID procedure described in Example 12.

[2] = substrate: C/C=C/COP(=O)(O)O; experiment: Kinetic parameters of enzyme catalyzed production of 1,3-butadiene from trans crotyl monophosphate (GC/FID); format: biochemical, Eucalyptus globulus; settings: other: 0-25 mM trans crotyl monophosphate, pH 7.5, 37° C., 20 mM MgCl2, 20 mM KCl, 0.5-4 h
Experimental: as §1
The kinetic parameters of enzyme catalyzed production of 1,3-butadiene from trans crotyl monophosphate were measured under the following conditions: • 50 mM Tris-HCl pH 7.5 • 20 mM MgCl2 • 20 mM KCl • 2 mM DTT • 0-25 mM trans crotyl monophosphate
as §2, §3

[3] = substrate: C/C=C\COP(=O)(O)O; experiment: Kinetic parameters of the crotyl monophosphate phosphorylation reaction (pyruvate kinase/lactate dehydrogenase coupled spectrophotometric assay); format: biochemical, Methanothermobacter thermautotrophicus; settings: other: cis crotyl monophosphate as a substrate; assay of Example 2; pH 7.5; 37.0 °C
Experimental: (§4) The release of ADP that is associated with crotyl alcohol phosphorylation was quantified using the pyruvate kinase/lactate dehydrogenase coupled assay (FIG. 5). The purified 4-methyl-5-(2-hydroxyethyl)thiazole kinases from Escherichia coli (SEQ ID NO:2), Bacillus subtilis (SEQ ID NO:1), Rhizobium leguminosarum (SEQ ID NO:3) were evaluated for their ability to phosphorylate crotyl alcohol releasing ADP. The studied enzymatic reaction was carried out under the following conditions at 37° C.: • 50 mM Tris-HCl pH 7.5 • 10 mM MgCl2 • 100 mM KCl • 5 mM ATP • 0.4 mM NADH • 1 mM Phosphoenolpyruvate • 3 U/ml Lactate dehydrogenase • 1.5 U/ml Pyruvate kinase • 50 mM crotyl alcohol, mixture cis and trans • The pH was adjusted to 7.5
(§5) Each assay was started by addition of a particular enzyme at a concentration 0.05 mg/ml and the disappearance of NADH was monitored by following the absorbance at 340 nm.
(§6) Sequences of isopentenyl monophosphate kinases inferred from the genomes of several members of the Archaea, in particular Methanothermobacter (SEQ ID NO:5), Methanocaldococcus (SEQ ID NO:6) and Thermoplasma (SEQ ID NO:4) genus, are generated by oligonucleotide concatenation to fit the codon usage of E. coli. […] The genes thus synthesized are cloned in a pET25b expression vector and the proteins are produced according to the protocol described in Example 1. The enzymes are then assayed using the method described in Example 2 with crotyl monophosphate concentrations varying from 0 to 50 mM. The release of ADP that is associated with crotyl monophosphate phosphorylation is quantified using the pyruvate kinase/lactate dehydrogenase coupled assay. Each assay is started by addition of particular enzyme (at a final concentration from 0.05 mg/ml to 1 mg/ml) and the disappearance of NADH is monitored by following the absorbance at 340 nm.
(§7) Cis crotyl monophosphate and trans crotyl monophosphate were synthesized upon request by a company specialized in custom synthesis (Syntheval, France). Kinetic parameters for the phosphorylation of these substrates were determined using the spectrophotometric assay described in Example 2. Kinetic parameters obtained with purified isopentenyl monophosphate kinases from different members of the Archaea kingdom are presented in Table 3 (cis crotyl monophosphate as a substrate) and Table 4 (trans crotyl monophosphate as a substrate).

[4] = substrate: C/C=C/COP(=O)(O)O; experiment: as above; format: biochemical, Methanothermobacter thermautotrophicus; settings: other: trans crotyl monophosphate as a substrate; assay of Example 2; pH 7.5; 37.0 °C
Experimental: as §4, §5, §6, §7

[5] = substrate: C/C=C\CO; experiment: Kinetic parameters of crotyl alcohol phosphorylation (pyruvate kinase/lactate dehydrogenase coupled spectrophotometric assay); format: biochemical, Escherichia coli; settings: other: crotyl alcohol phosphorylation, pH 7.5, 37° C., 5 mM ATP
Experimental: as §4, §5
(§8) Kinetic parameters of crotyl alcohol phosphorylation were determined using the spectrophotometric assay described in Example 2.

[6] = substrate: C/C=C/CO; experiment: as above; format: biochemical, Escherichia coli; settings: other: crotyl alcohol phosphorylation, pH 7.5, 37° C., 5 mM ATP
Experimental: as §4, §5, §8

[7] = substrate: NC(=O)C1=CN([C@@H]2O[C@H](COP(=O)(O)OP(=O)(O)OC[C@H]3O[C@@H](n4cnc5c(N)ncnc54)[C@H](OP(=O)(O)O)[C@@H]3O)[C@@H](O)[C@H]2O)C=CC1; experiment: purified protein, by the assay type; settings: other: crotonyl-CoA fixed at 5 mM, NADPH 0 to 0.8 mM, pH 7.5, 37° C.
[8] = substrate: C/C=C/C(=O)SCCNC(=O)CCNC(=O)[C@H](O)C(C)(C)COP(=O)(O)OP(=O)(O)OC[C@H]1O[C@@H](n2cnc3c(N)ncnc32)[C@H](O)[C@@H]1OP(=O)(O)O; experiment: Kinetic parameters towards crotonyl-CoA, overall reaction (crotyl alcohol quantification by HPLC); format: biochemical, Hahella chejuensis; settings: other: NADPH fixed at 80 mM, crotonyl-CoA 0 to 32 mM, pH 7.5, 37° C.
Experimental: The reactions were initiated by addition of 150 μg of purified dehydrogenase/reductase to 150 μl of reaction mixture. Assays were incubated at 37° C. for 0.5-6 h. The reactions were stopped by heating at 65° C. for 5 minutes, reaction mixtures were centrifuged and 120 μl of the clarified supernatant were transferred into a clean vial. The reaction products were then extracted with an equal volume of ethyl acetate. 100 μl of the upper ethyl acetate phase was transferred into a clean vial for HPLC analysis. Commercial crotonaldehyde and crotyl alcohol were used as reference. HPLC-UV analysis was performed using a 1260 Inifinity LC System (Agilent). 10 μl of samples were separated on Zorbax SB-Aq column (250×4.6 mm, 3.5 μm particle size) with a mobile phase flow rate of 1.5 ml/min. The mobile phase consisted of 95:5 (v/v) H2O/Acetonitrile containing 8.4 mM sulfuric acid.
Kinetic parameters for the overall reaction were determined by crotyl alcohol quantification using HPLC procedure described in Example 17.

[9] = substrate: C/C=C\COP(=O)(O)O; experiment: Kinetic parameters of the crotyl monophosphate phosphorylation reaction (pyruvate kinase/lactate dehydrogenase coupled spectrophotometric assay); format: biochemical, Thermoplasma acidophilum; settings: other: cis crotyl monophosphate as a substrate; assay of Example 2; pH 7.5; 37.0 °C
Experimental: as §4, §5, §6, §7

[10] = substrate: C/C=C/COP(=O)(O)O; experiment: as above; format: biochemical, Thermoplasma acidophilum; settings: other: trans crotyl monophosphate as a substrate; assay of Example 2; pH 7.5; 37.0 °C
Experimental: as §4, §5, §6, §7

[11] = substrate: C/C=C\COP(=O)(O)O; experiment: as above; format: biochemical, Methanocaldococcus jannaschii; settings: other: cis crotyl monophosphate as a substrate; assay of Example 2; pH 7.5; 37.0 °C
Experimental: as §4, §5, §6, §7

[12] = substrate: C/C=C/COP(=O)(O)O; experiment: as above; format: biochemical, Methanocaldococcus jannaschii; settings: other: trans crotyl monophosphate as a substrate; assay of Example 2; pH 7.5; 37.0 °C
Experimental: as §4, §5, §6, §7

B1: monoterpene synthase from Eucalyptus globulus, SEQ ID NO: 8 (Eucalyptus globulus) (protein)
chain: MALRLLFTPHLPVLSSRRANGRVRCSASTQISDPQEGRRSANYQPSVWTYNYLQSIVAGEGRQSRREVEQQKEKVQILEEEVRGALNDEKAETFTIFATVDDIQRLGLGDHFEEDISNALRRCVSKGAVFMSLQKSLHGTALGFRLLRQHGYEVSQDVFKIFLDESGSFVKTLGGDVQGVLSLYEASHLAFEEEDILHKARSFAIKHLENLNSDVDKDLQDQVKHELELPLHRRMPLLEARRSIEAYSRREYTNPQILELALTDFNVSQSTLQRDLQEMLGWWNNTGLAKRLSFARDRLIECFFWAVGIAHEPSLSICRKAVTKAFALILVLDDVYDVFGTLEELELFTEAVRRWDLNAVEDLPVYMKLCYLALYNSVNEMAYETLKEKGENVIPYLAKAWYDLCKAFLQEAKWSNSRIIPGVEEYLNNGWVSSSGSVMLIHAYFLASPSIRKEELESLEHYHDLLRLPSLIFRLTNDIASSSAELERGETTNSIRCFMQEKGISELEARECVKEEIDTAWKKMNKYMVDRSTFNQSFVRMTYNLARMAHCVYQDGDAIGSPDDLSWNRVHSLIIKPISPAA
Km [1]: 7000 µM
kcat [1]: 3e-05 s⁻¹
Km [2]: 6000 µM

B2: isopentenyl monophosphate kinase from Methanothermobacter thermautotrophicus, SEQ ID NO:5 (Methanothermobacter thermautotrophicus str. Delta H) (protein)
chain: MIILKLGGSVITRKDSEEPAIDRDNLERIASEIGNASPSSLMIVHGAGSFGHPFAGEYRIGSEIENEEDLRRRRFGFALTQNWVKKLNSHVCDALLAEGIPAVSMQPSAFIRAHAGRISHADISLIRSYLEEGMVPVVYGDVVLDSDRRLKFSVISGDQLINHFSLRLMPERVILGTDVDGVYTRNPKKHPDARLLDVIGSLDDLESLDGTLNTDVTGGMVGKIRELLLLAEKGVESEIINAAVPGNIERALLGEEVRGTRITGKH
Km [3]: 940 µM
kcat [3]: 5.7 s⁻¹
Km [4]: 450 µM
kcat [4]: 8.7 s⁻¹

B3: 4-methyl-5-(2-hydroxyethyl)thiazole kinase (hydroxyethylthiazole kinase, EC 2.7.1.50) from Escherichia coli, SEQ ID NO:2 (Escherichia coli K-12) (protein)
chain: MQVDLLGSAQSAHALHLFHQHSPLVHCMTNDVVQTFTANTLLALGASPAMVIETEEASQFAAIASALLINVGTLTQPRAQAMRAAVEQAKSSQTPWTLDPVAVGALDYRRHFCHELLSFKPAAIRGNASEIMALAGIANGGRGVDTTDAAANAIPAAQTLARETGAIVVVTGEMDYVTDGHRIIGIHGGDPLMTKVVGTGCALSAVVAACCALPGDTLENVASACHWMKQAGERAVARSEGPGSFVPHFLDALWQLTQEVQA
Km [5]: 13600 µM
kcat [5]: 0.19 s⁻¹
Km [6]: 30000 µM
kcat [6]: 0.11 s⁻¹

B4: short chain alcohol dehydrogenase-like protein from Hahella chejuensis, SEQ ID NO: 17 (Hahella chejuensis KCTC 2396) (protein)
chain: MNYFVTGGTGFIGRFLVPKLLKRGGTVYLLVREASLPKLDELRERWNASDEQVVGVVGDLAQPMLGVSEKDAAMLRGKVGHFFHLAAIYDMQASAESQEQANIEGTRNAVKLADSLKAACFHHVSSIAAAGLYRGIFREDMFEEAEKLDNPYLRTKHESEKVVREECQTPWRVYRPGMVVGHSKTGEIDKIDGPYYFFKLIQKLRSALPQWMPTVGLEGGRINIVPVDFVVDAMDHIAHAEGEDGKCFHLTDPDPYKVGEILNIFAEAGHAPKMAMRIDARMFGFIPPMIRQGIARLPPVQRMKNAVLNDLGIPDEVMSFINYPTRFDNRETERLLKGTAIAVPRLQDYSPAIWDYWERHLDPDLHKDRTLRGAVEGRVCVITGATSGIGLSAARKLAEAGAKVVIAARTLEKLQEVKKELEELGGEVYEYSVDLSDLEDCDRFVANVLKDLGHVDVLVNNAGRSIRRSIQHAFDRFHDFERTMQLNYFGSLRLIMGFAPSMLERRRGHIVNISSIGVLTNAPRFSAYVASKAALDAFSRCAAAEFSDKNVTFTTINMPLVRTPMISPTKIYDSVPTLTPEEAADLVAEAIIHRPKRIATRLGVFAQVLHSMAPKFSEIIMNTGFKMFPDSSAATGGKDGEKPKVSTEQVAFAAIMRGIHW
Km [7]: 1000 µM
kcat [7]: 6.0 s⁻¹
Km [8]: 5000 µM
kcat [8]: 0.05 s⁻¹

B5: isopentenyl monophosphate kinase from Thermoplasma acidophilum, SEQ ID NO:4 (Thermoplasma acidophilum DSM 1728) (protein)
chain: MMILKIGGSVITDKSAYRTARTYAIRSIVKVLSGIEDLVCVVHGGGSFGHIKAMEFGLPGPKNPRSSIGYSIVHRDMENLDLMVIDAMIEMGMRPISVPISALRYDGRFDYTPLIRYIDAGFVPVSYGDVYIKDEHSYGIYSGDDIMADMAELLKPDVAVFLTDVDGIYSKDPKRNPDAVLLRDIDTNITFDRVQNDVTGGIGKKFESMVKMKSSVKNGVYLINGNHPERIGDIGKESFIGTVIR
Km [9]: 610 µM
kcat [9]: 1.8 s⁻¹
Km [10]: 1000 µM
kcat [10]: 2.2 s⁻¹

B6: isopentenyl monophosphate kinase from Methanocaldococcus jannaschii, SEQ ID NO:6 (Methanocaldococcus jannaschii DSM 2661) (protein)
chain: MLTILKLGGSILSDKNVPYSIKWDNLERIAMEIKNALDYYKNQNKEIKLILVHGGGAFGHPVAKKYLKIEDGKKIFINMEKGFWEIQRAMRRFNNIIIDTLQSYDIPAVSIQPSSFVVFGDKLIFDTSAIKEMLKRNLVPVIHGDIVIDDKNGYRIISGDDIVPYLANELKADLILYATDVDGVLIDNKPIKRIDKNNIYKILNYLSGSNSIDVTGGMKYKIDMIRKNKCRGFVFNGNKANNIYKALLGEVEGTEIDFSE
Km [11]: 200 µM
kcat [11]: 3.4 s⁻¹
Km [12]: 490 µM
kcat [12]: 3 s⁻¹
